Reference: PMC9784577, “Cross-Feeding and Enzymatic Catabolism for Mannan-Oligosaccharide Utilization by the Butyrate-Producing Gut Bacterium Roseburia hominis A2-183” (Microorganisms, 2022)

How the values were obtained:
[1] = biological target: α-galactosidase RhGal36A (Roseburia hominis A2-183); assay: native gel or EMSA; native-PAGE on 4-15% Mini-PROTEAN TGX precast gels, 30 min at 150 V, Native PAGE marker; size of the oligomer from the band's apparent mass against the monomer's mass
[2] = biological target: β-1,4 mannan-oligosaccharide phosphorylase RhMOP130A (Roseburia hominis A2-183); assay: as above

Row | Substance | stoichiometry N [1] | stoichiometry N [2]
1 | α-galactosidase RhGal36A (enzyme) | 4 | 
2 | β-1,4 mannan-oligosaccharide phosphorylase RhMOP130A (enzyme) |  | 6
